Columns and labels:
HPV16 PsV = format: cell-based, human papillomavirus; conditions: HeLa cells, nonpolysaccharide compounds, dash = no inhibition at noncytotoxic doses
Procedure: Various candidate HPV infection inhibitors were tested using a PsV-based inhibition assay. The assay uses flow cytometric analysis to assess the inhibition of PsV-mediated delivery of a green fluorescent protein (GFP) reporter plasmid into HeLa cells. HPV16, an exceptionally oncogenic genital HPV type, was chosen as a model HPV for initial experiments.
(§1) Compounds were tested using a previously described PsV-based papillomavirus inhibition assay. Briefly, HeLa cells were plated at 6,000 cells/well in 50 μl of medium in 96-well plates. Candidate inhibitors were dissolved at 1–10 mg/ml (or reconstituted as directed by manufacturer) in sterile water or appropriate solvent, then subjected to a ten-point three-fold serial dilution covering an appropriate concentration range. Diluted candidate inhibitor (50 μl) was added to preplated HeLa cells, followed by 50 μl of diluted PsV stock. The cells were incubated for 24 h, fed by addition of 100 μl of DMEM-10, then subjected to flow cytometric analysis 48–56 h after infection. IC50 values and 95% CI were determined using Prism (GraphPad Software, San Diego, California, United States) to calculate a variable slope sigmoidal dose-response curve.
PsV doses were calibrated such that between 5% and 20% of cells scored as GFP^+ when no inhibitors were added. […] HPV5 PsV infection of HeLa cells was performed with a dose of 35 ng/ml L1. […]

HeLa cells = experiment: Cytotoxicity (WST-1 turnover and/or cell morphology); format: cell-based; conditions: >50% reduction in WST-1 turnover and/or altered cell morphology
Procedure: as §1
Cytotoxicity was defined as a >50% reduction in the net turnover of the metabolic substrate WST-1 (Roche, Indianapolis, Indiana, United States) and/or by the appearance of dramatic alterations in the microscopic appearance of cell morphology at the time of harvest.

B1: Lactoferrin (protein, UniProt P24627 20-708, looked up)
Lactotransferrin: APRKNVRWCTISQPEWFKCRRWQWRMKKLGAPSITCVRRAFALECIRAIAEKKADAVTLDGGMVFEAGRDPYKLRPVAAEIYGTKESPQTHYYAVAVVKKGSNFQLDQLQGRKSCHTGLGRSAGWIIPMGILRPYLSWTESLEPLQGAVAKFFSASCVPCIDRQAYPNLCQLCKGEGENQCACSSREPYFGYSGAFKCLQDGAGDVAFVKETTVFENLPEKADRDQYELLCLNNSRAPVDAFKECHLAQVPSHAVVARSVDGKEDLIWKLLSKAQEKFGKNKSRSFQLFGSPPGQRDLLFKDSALGFLRIPSKVDSALYLGSRYLTTLKNLRETAEEVKARYTRVVWCAVGPEEQKKCQQWSQQSGQNVTCATASTTDDCIVLVLKGEADALNLDGGYIYTAGKCGLVPVLAENRKSSKHSSLDCVLRPTEGYLAVAVVKKANEGLTWNSLKDKKSCHTAVDRTAGWNIPMGLIVNQTGSCAFDEFFSQSCAPGADPKSRLCALCAGDDQGLDKCVPNSKEKYYGYTGAFRCLAEDVGDVAFVKNDTVWENTNGESTADWAKNLNREDFRLLCLDGTRKPVTEAQSCHLAVAPNHAVVSRSDRAAHVKQVLLHQQALFGKNGKNCPDKFCLFKSETKNLLFNDNTECLAKLGGRPTYEEYLGTEYVTAIANLKKCSTSPLLEACAFLTR
In the case of B1, the IC50 (HPV16 PsV) is reported as 13 µg/mL and the Cytotoxicity (HeLa cells) is reported as >780 µg/mL.
